Assay: soluble on expression in E. coli; label from the status in PepcDB or PDB records

Row | Sequence | soluble on expression in E. coli
1 | MAHHHHHHMEAFAITPLAEDDTTFVKDAQQFLAVIADMQREAEQRRCLLDDLRQKEAAAEMELEKCLAVREAVVARMAHTKAEGLELQSEYKALTTQQRAVEAEVLELRRQKSHWKKVLQEFQGSSSSSHLLGSGNTDGATVKSASSLDRALHAWSQLPHGSMFLKELKKTLTEFVAELAVNAGSNTNDNSNTTHNGTSTEYTTAFLDPSSVFPHLPPLSKVEEAIILLIPFSA | not soluble
2 | MAHHHHHHMEALETLRSIAPVSSTEEIQAMIKSAKNAREVRMVLERIVYTHHLCFDLLNGHGYRVAVLQTLTAVAPHASCMHEWFDCVARFRRLGFVLTRTYAAEGFTTIRQWLSHEFFHRGRSPSLVTEGTAHIKELMQWCLEDRLVFDHVLYTRIVFLLTMIVSYLDRQNLYRASFPEDFAKRDGIVVEWIVTNERCVDFDECVLQCDAVMEELLEQMRQDIPSRPPFSFMYRLADYYFATDNVEKMIAVMEDAESYGVSVAESTTAKLMQMACAFNSPQVPELLLRWRVLPPQCVLATPDMSRLLFFYSRSGGGLPCPHCGEAYNHRNVSVYCWLQTPPHQRQCPALRKARVQKGELEESRELPQNADWSAQAFGLFELSRARAIEWTAVEWRGFLLCCIFSPRAMEAKALMDQYLDVTEMDDFLRAACIRLLRHHAPAEAWPTLKKWKQQQCNMSPIALQEALMAASMVADAATRLEHMKAVWQLLLEKDSYVMPLTRRFYQRRMEELATSYAAAAASGDGKESQGGLATEREEAQLMQRVVEMQPRHVSLLDMKDSAADFVVGTRRKNVYRPR | not soluble
3 | MAHHHHHHMECYDNTKQKDLQEEHDVVRNFRRYYFQEKEEMHIAAIKSISDVLKNSISETNFELFINMNEAKCKLNNFINNNQTQQDIISVPHSKRMTIYPIISSCDIYHHFVVKKYTHNENNFHVLKNVIENNADEFSASLQKSLETIGSSSNIMFLNKHTTILTHSNSDCVKSLIMDVVKNQNKQVSIYFTCTSQVNLNYEEKEKKFDENFLEELNKENINITKIDLTQVKDIINKIDFVLIGSEIVTDNGGIINKKGIKLISELCLLYKKPFYVTCQAYKFLKIDKNKCSKDFYTFCTQTVTNNFNNIYEFVSPDFITLFYTDIGIFPPSNISYELSKLYINDAFYF | soluble
4 | MAHHHHHHMEDFLTKLKKISEQYNNLLLEKKIIDKRIANIGENIRKYEETREKSLEDVELKKNQLLKNKNKHIIMCQKMEQLNGKLNEILIRKQSIDDDEEKKVINKQIHTVNNTYVLLKHVQNLNDAMLKDEGNRYYKLITENIHSKSFSNRKTLNILNSFLRKSRANIQERGSEGAKSSTPPAAIHSANYFKIIQTNDIVQKLLDLFSGDHTALTIDKQQFLFVLLMNVLRKIACASEMAIPPEDCNSRHHVIYNFLHNKYILHL | soluble
5 | MAHHHHHHMEESDEDDNIQVIVFGNSSEAKFDDFYREEDIKKEEIQDNINDAMVPNESNEQDKAQNEDVDLESKVQNATKENKVFMKYDYTHEKPWSNHGDKSMWFNYNFDEHTFKEWVQKHIDRKLEKQQNYQIENTDNYFFEDTFKGNMMNTSSVNNQSMQGIKSFPSKNMNPFNTSKLIEHNGSPNYTSNKMDKIKNNNNNNNNKNNSNSNNKNNSNNKNNSNSNNRSDINQTTTNTNNDLKQFQNLINFLKQNN | not soluble
6 | MAHHHHHHMEGASHEAAEHTSASAMTRKERKKIEKSEKQAEELRQLSKKANAVNGDTDNPFSVTLETDQIAEGSRNITFNKVSVSVNGKTLFKDTTVKLSAGSRYGLMGPNGRGKSTILRLLASRELPVQSNLDLLLVEQEQEFTASELSAVDAVLQSHKKQNACADEAKALGAKAELSEAEMERLHFLEEELDIMGAAQADARARRILFGLGFPTEWHERPTSSFSGGWRKRIALASAVFIEPDVLMLDEPTNHLDLNAVIWLESYLTKAYSEMARRPKTLIVVSHDAGFLDEVCTHMVHVENYMLNYYRGSYSSFDEQLQQRHQELDKKYESVAKTIRDKKRNGMSNAQVEVWIKDQVNSGRLDPLFLEKRRDYTVNFPFPDPPELRDGCVCKLDSVSFNYPGGPVLFQNVSCALWTDSRITLCGPNGIGKSTLLNLMTGVLEPTAGYITLNRQVRIGRYNQHFVDKLPLEKTPVECIQALGIPEEDKARRLLGSFGLEGIVHKNQIATLSGGQKARVAFAAISAESPHFLLFDEPTNHLDVESIDALCTAIRNFKGGVLVVTHDARLIESTEMQIWVAGDKNVMPFNGSLDDYKNVVRAEFEKEEAMRLEERKQLLEHKTEARQLKQSGVADVTTALQEKKEKKQHEHAQGLDAFLTAAAKKKKPKKAKEES | soluble
7 | MAHHHHHHMEGQSELVERVVRMQLTSPDFAEYCVAHVTDPKHRFLFSRNEDEAERRLYVRLLEGRGHQKRAETPAVVAPAFAPERTSSLMTHGGTAVLWMSLLDYFSSTPGVRGPHMPHMFRTEADLTAFVDMLDGAQREHVSLEDVVQFMLRRLPMTEVFLYVLCYMCDVRIHEVRRETRRRSSGACVTDSADGASDEKKLQAAGTLLFIANMLLLQHDALERPLRYLSVFEFYMQRMVEALAGTVPKNSPVDTFLRETVMVWSEGHVFGEEALDCMKRAIGCSLG | not soluble
8 | MAHHHHHHMEKDDHYKTSEKYEICTSFENIGIDEGLLRGIYAYGFEKPSAIQQRGIKPILNGRDVILQSQSGTGKTCVFAVGALNCVNRNLNETQVIILSPTRELAEQTQKVCLALADYIHVTIYCCIGGKKMSDDIKALNNGVHVISGTPGRIYHMLNLRHLKCKYIKQLVIDEADEMLNKGFKEQVYDIYRFLSPNTQIILSSATLPQEVLEITNKFMHKPVKILVKRDELTLEGIKQFFVSIEKEQWKYETLADLYESLTITQAVVFCNTQMKVDWLTKKMLESNFTVCKMHAGMSQSERDDIMLKFRQCKFRVLISTDIWGRGLDVQEVSLVVNYDLPNSRESYIHRIGRSGRFGRKGVAINFVKNDDIKILRDIEQYYSTQIDEMPMNITELL | not soluble
9 | MAHHHHHHMEPLIIDNLYKFGDEEVRLGIDEAGRGPVLGPMVYAGFYCNKEHEKLLKEMKIDDSKKISEADREMMFHKLNNSSLPFGWRIHVLMPQDISAKMLKKQKYNLNEISHDTAISIIDHVISRGCNLTEVFVDTVGKPSVYEEKLKRLFPHIKCTVKEKADSLYPVVSAASICAKVTRDFLIKKWKYEEPLVNIDKGFGSGYPGDPITKNFLKNNFDTVFGFPSIVRFSWSTADNMLETMGEQIEWYDDIENNDSKAIKRKTPFDYSKLQKPFVQRSLFYSKVGLDLVENL | not soluble
10 | MAHHHHHHMFISEDLDPEALKNEANIKWKEVIGKGNMEEANIIWRQALKECIKYSMRGIPTNKNRDMQISLRLNLSLYHYKKKEYSDCINQCNIIIDNLLNLEEMLQYYNMGDEEENKKESNNNDGDKGDHISDDKGDHMSDDKGDHKDDDKGDHMSDDKGDHKDDDKGDHMSDDKGDHKDDDKGDHMSDDKDKSNVNLREKKYIIKKDILIKIFLRRASSFLCLQEFNKCNEDLGIIKKLENNDAEAATLEKRMIIEKKDYERKQKELYKKMCNSK | not soluble
11 | MAHHHHHHMFRRLSVCVPFATTARFYTPSEELKKLYASDFERAQFPANIVPSDSVTFAKFLYKAVEPKGSFDTILKDFQTIAAAIPKLPVFWQRTVVVSEVSEFKSLSAPTTFTLEWMQSNGMLDLLPDVAEVYETYVNAKMKRVTAKIYVAAGKEQDRALVDKAKKVAEQVVKDNQQFAGYTLVPKVLVDRSIVEGFAVDVQGTYVNEAVGRKKETQASGEVDYTTIPPPRLSKTTWEDNIETEVLRKYLDSLSLYDAEELKSGV | soluble
12 | MAHHHHHHMGENRRPSRWSSERYTNLFVPNYIPPELMLYDEGQFLRAFLLRVLSIDLNRLIETKRCGDYFINIPLVPEYNSEGQRTNTPDELVAEKRLKVMDELTNLLRQHSELELNAKTQKEVVRKRYFTQEEMDNGAYGAILGARGMVHQELERLTKCKIVLAGRGITNALKDTSANAARVALEDPHARITAPNEQALQHAMERIEWILSDDPEALEFRENNRKRMAQIEGRYDPRTWVSLAERNAKNPRRMGEKREREEEAKEELDADLQEFLDEL | soluble
13 | MAHHHHHHMGFPAVPFVEDKNDAEILRDEADDEFASYFKEGRKPKILITTGEHPCFRTKLFVKEALWLFPNSIYRPRKKYNLKEITQFCINREFTDLIVVTDRLKEPYNLIISHLPEGPTAMFRVSNFMTHAQLKDPAPRTEHYPELIFKNFDTRLGRRINRLLECLFPATRDYEGRAVATFHNQRDYIFMRTHRYIFDSLDAVRIQEMGPRFTLRLLSLQSGTFDTQFGEYEWFRKKEHDDDKLEWYL | soluble
14 | MAHHHHHHMGGGGSIPRKKATSARQVSTDRSVRRLQTKRRVGEPRFNGIGYVTIPLCIQEDLPPPPEDDDAPDDSTRKFAWFVEDLDMPGEWELYPPDACERLDEARRSNMTECLVVVKKRMCTVNLVKMEHLCAGSNARPRQVKRVEVEVSNGTTTYQEKRKVPNDPFAEDSPRETPSPMELFESEENAVHDVGSATTTKAEPEKVPNLVRSILTEKTTSYAMSLTSNGTTVFSGTKAQMLRWDLKTAEVTAEFDVQDSVVLSNALSHDERHVVAGRSDCTASMHSVDGSTSCVFSGHQRKVYGVDFLLGDDRVATASMDCTVRIWDASTSTCVQTIGCSAASVFTVVTSDLNNHFALSAGDDNIIYAHDLRSGGDCVIDRFIDHASTVWCCALRNDEQVFASCGIDGVIRVWDIRNSSSPTLLLRHHEKPVHMVKFTPRGRAILSCGRDDNMRLTDAMTGEPLWRAVAHRRFVYRIAFSKEKKFILSSGGDHRVNVWNYDYIDRM | not soluble
15 | MAHHHHHHMGKGAVHPNGSNFCRAIKYNIVDKMRMLVETNLYDRPRWLEWAERAPPIEIHNISLKSRYNNNKYIDLVKFLLKKYPHLRFQDCYVEGNNNVKGYDFFRNDHIITQMATHQLYYMNRGYGKKDALQKVEKEFYNRRMELEKKQKINMCLSIDKKIKPLYTDGYAYLYEKMADNEKAHLGLILKKLRAMREKLEKEQGGDGAQPHT | not soluble
16 | MAHHHHHHMGTLEAQTQGPGSMQYPPRLGFGTWQAPPEAVQTAVETALMTGYRHIDCAYVYQNEEAIGRAFGKIFKDASSGIKREDVWITSKLWNYNHRPELVREQCKKTMSDLQVDYLDLFLVHWPLAFVRNDVGDLFPKDAEGRAMLEKVPLADTWRAMEQLVEEGLVKHIGVSNYTVPLLADLLNYAKIKPLVNQIEIHPWHPNDATVKFCLDNGIGVTAYSPMGGSYADPRDPSGTQKNVILECKTLKAIADAKGTSPHCVALAWHVKKWNTSMYSVIPKSQTPARIEANFKCTEVQLSDDDMDAINNIHLNKRIRFCDPAIFWKVPLFD | soluble
17 | MAHHHHHHMHPYLFICKEGNNNNGSTTNLKSGMSLSDRRHTPLGRNLSESTELSQSLSSRSGGSSPIPRPNLDDITRRLLEENEGMLFEINKLTRELTDERAKVSGLHETLAERSAELELMKEKLSDATVVATDDTGKPINYKRECDGLAADNNRLVKEYERVCTELEKRTEEIRREMGDQRDEAEGKTISVQVEQFNREITALVPTVEHIVNSLKRCVVTGGIAEERILENAQKELHTMRRITDTVRRMNAGDETCVKGLLTQIQKGEQLTAPGDVAVVIRWMVVRAFEAGLQSAEGNLRTLVDILNNSKGRYTSENATTGSGEVPASGISVRQMFRLLKM | not soluble
18 | MAHHHHHHMHQHGKTSGTDGSGATVSQSSSGFMETPWRIFEYGVASEQGSRKTMEDQHAMVAESFPFFAVYDGHGGTQCAEFLRDNLHTFIFGQPEIETDPERATRAGIAEAENAFLTKCADEKIESGSTCAVALVVDDTLIAGNVGDSEIVLCRAGAPIVLSTKHSIQDNVSEGERVKACGGRIISNRVGHPKFNPQLLSLAITRAIGDAGFKLREFTDGKPSGVIADAETRSTRLTDDDKFLIIGCDGLWDVMSYEAAVQLCSRLASEGETPKAIAGSLCQEALRQGSTDNVTCIYINIRAKSSAPGCGQLGSGDPLHNM | soluble
